Measurements published in US20160185837A1 (Medimmune Limited, priority 2013, published 2016).
Numbering of substitutions follows the chain as printed.

B1: IP301 (protein)
chain: YSEGTFTSDVSSYLEREAIDEFIAWLLKGGAAAGGSGSTASSGSGSATGGGGAATHTCPPC
B2: IP306 (protein)
chain: B1 chain with V10Y, S12K, Y13L, E17Q
B3: IP307 (protein)
chain: B1 chain with L14M, E17Q, G29Q
B4: IP309 (protein)
chain: B1 chain with T7I, E17Q
B5: IP310 (protein)
chain: B1 chain with L14M, E17Q, G30K
B6: IP312 (protein)
chain: B1 chain with T7I, L14M, E17Q
B7: IP315 (protein)
chain: B1 chain with T7I, V10Y, E17Q

How the values were obtained:
Format in all cases: cell-based
[1] = molecular target: T1, human GIP receptor (hGIPr) (Homo sapiens, UniProt P48546); assay: BSA-cAMP assay, cells expressing human GIP receptor; details: Batch 1; BSA-cAMP assay; read-out: hGIPr cAMP activity EC50
T1 construct: expressed in transfected cells
T1 sequence (P48546 22-466): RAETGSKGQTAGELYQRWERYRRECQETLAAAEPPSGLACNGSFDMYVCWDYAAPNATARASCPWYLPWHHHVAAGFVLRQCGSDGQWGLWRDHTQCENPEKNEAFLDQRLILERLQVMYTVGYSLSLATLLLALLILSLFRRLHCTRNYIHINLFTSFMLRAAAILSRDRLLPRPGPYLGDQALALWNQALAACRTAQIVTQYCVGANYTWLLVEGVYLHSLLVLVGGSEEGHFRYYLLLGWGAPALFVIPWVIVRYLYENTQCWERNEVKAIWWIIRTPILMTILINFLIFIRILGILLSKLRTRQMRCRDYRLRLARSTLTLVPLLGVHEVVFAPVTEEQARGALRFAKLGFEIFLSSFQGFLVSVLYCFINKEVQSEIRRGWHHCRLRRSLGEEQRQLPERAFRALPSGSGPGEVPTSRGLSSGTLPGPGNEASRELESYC
Procedure: For human GIPr, two different lines were used, shown as “hGIPr” and “hGIPr (C3)” in Table 11.
(§1) One basic cAMP assays was performed, differing in the medium used for the assay, the “BSA-cAMP assay”:
(§2) BSA-based assay medium: 0.1% bovine serum albumin (BSA) in
(§3) In certain aspects, the assay can also be carried out in medium supplemented with serum albumin that corresponds to the receptor being tested, e.g., human serum albumin for testing cAMP activity at hGIPr or hGLP-1r, rat serum albumin for testing cAMP activity at rGIPr or rGLP-1r, and so on. […] All sample dilutions were made in duplicate.
(§4) A frozen cryo-vial of cells expressing the receptor of interest was thawed rapidly in a water-bath, transferred to pre-warmed assay media and spun at 240×g for 5 minutes. Cells were re-suspended in assay buffer at an optimized concentration (e.g., hGLP-1r and hGIPr cells at 0.5×10^5 cells/ml).
(§5) To this, 5 μL cell suspension was added and the plates incubated at room temperature for 30 minutes.
(§6) cAMP levels were measured using a commercially available cAMP dynamic 2 HTRF kit (Cisbio, Cat #62AM4PEJ), following the two step protocol as per manufacturer's recommendations. In brief; anti-cAMP cryptate (donor fluorophore) and cAMP-d2 (acceptor fluorophore) were made up separately by diluting each 1/20 in conjugate & lysis buffer provided in the kit. 5 μL anti-cAMP cryptate was added to all wells of the assay plate, and 5 μL cAMP-d2 added to all wells except non-specific binding (NSB) wells, to which conjugate and lysis buffer was added. […] Data was transformed to % Delta F as described in manufacturer's guidelines and then transformed to percent activation of maximal native agonist response and analysed by 4-parameter logistic fit to determine EC50 values.
(§7) We used unconstrained 4 parameter logistic fit of data, curve mid-point to determine EC50. This was tested on two occasions, not two batches.

[2] = molecular target: T2, mouse GIP receptor (mGIPr) (Mus musculus, UniProt Q0P543); assay: BSA-cAMP assay, cells expressing mouse GIP receptor; details: Batch 1; BSA-cAMP assay; read-out: mGIPr cAMP activity EC50
T2 construct: expressed in transfected cells; host or cells: HEK293s or CHO cells
T2 sequence (Q0P543 19-460): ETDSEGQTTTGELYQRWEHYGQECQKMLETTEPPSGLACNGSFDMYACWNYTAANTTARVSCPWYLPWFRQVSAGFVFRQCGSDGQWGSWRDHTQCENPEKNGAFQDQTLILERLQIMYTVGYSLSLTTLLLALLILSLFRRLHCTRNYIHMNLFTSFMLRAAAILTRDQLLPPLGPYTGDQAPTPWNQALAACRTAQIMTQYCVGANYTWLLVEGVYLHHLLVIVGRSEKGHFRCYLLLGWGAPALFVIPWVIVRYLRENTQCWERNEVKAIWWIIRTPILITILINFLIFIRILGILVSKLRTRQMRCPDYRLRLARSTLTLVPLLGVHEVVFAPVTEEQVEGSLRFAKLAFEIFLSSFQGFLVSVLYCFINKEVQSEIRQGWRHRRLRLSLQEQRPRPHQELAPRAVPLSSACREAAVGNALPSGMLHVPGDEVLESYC
Procedure: as §1, §2, §3, §4, §5, §6, §7
(§8) In order to be able to carry out in vivo studies in rodents, IP088 was tested for potency against the mouse receptors mGIPr and mGLP-1r as well as the rat receptors rGIPr and rGLP-1r, using cells expressing the respective receptors in the cAMP assay described above.

[3] = molecular target: T3, human glucagon receptor (GCGr) (Homo sapiens, UniProt P47871); assay: BSA-cAMP assay, cells expressing human glucagon receptor; details: Batch 1, read-out: hGCGr cAMP activity EC50
T3 construct: expressed in transfected cells; host or cells: HEK293s or CHO cells
T3 sequence (P47871 26-477): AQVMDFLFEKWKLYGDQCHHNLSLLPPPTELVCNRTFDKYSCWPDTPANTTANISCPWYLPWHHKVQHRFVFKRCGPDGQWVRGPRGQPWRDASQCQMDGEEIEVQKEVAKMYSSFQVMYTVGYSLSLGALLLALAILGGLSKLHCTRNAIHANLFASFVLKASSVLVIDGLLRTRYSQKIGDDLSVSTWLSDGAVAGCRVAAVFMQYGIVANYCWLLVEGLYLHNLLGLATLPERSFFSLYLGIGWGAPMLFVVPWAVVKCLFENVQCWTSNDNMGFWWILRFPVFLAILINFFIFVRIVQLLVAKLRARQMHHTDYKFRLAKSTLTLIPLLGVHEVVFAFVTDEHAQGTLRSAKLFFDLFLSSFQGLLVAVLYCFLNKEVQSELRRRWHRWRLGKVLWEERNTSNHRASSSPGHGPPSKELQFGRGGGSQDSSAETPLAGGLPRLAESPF
Procedure: as §1, §2, §3, §4, §5, §6, §7

[4] = molecular target: T4, human GLP-1 receptor (hGLP-1r) (Homo sapiens, UniProt P43220); assay: BSA-cAMP assay, cells expressing human GLP-1 receptor; details: Batch 1; BSA-cAMP assay; read-out: hGLP1r cAMP activity EC50
T4 construct: expressed in transfected cells
T4 sequence (P43220 24-463): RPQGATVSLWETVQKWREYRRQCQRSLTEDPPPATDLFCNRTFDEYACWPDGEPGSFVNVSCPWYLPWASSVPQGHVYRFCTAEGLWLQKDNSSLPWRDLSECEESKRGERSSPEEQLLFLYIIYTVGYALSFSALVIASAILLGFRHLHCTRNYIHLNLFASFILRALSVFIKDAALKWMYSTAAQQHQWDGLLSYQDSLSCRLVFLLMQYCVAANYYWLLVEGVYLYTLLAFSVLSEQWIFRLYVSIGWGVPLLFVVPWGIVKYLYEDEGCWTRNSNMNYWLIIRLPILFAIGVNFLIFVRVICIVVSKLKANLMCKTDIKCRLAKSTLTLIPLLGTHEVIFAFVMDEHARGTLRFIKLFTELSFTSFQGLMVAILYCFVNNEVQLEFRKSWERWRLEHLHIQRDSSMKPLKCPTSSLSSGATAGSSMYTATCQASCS
Procedure: as §1, §2, §3, §4, §5, §6, §7

[5] = molecular target: T5, rat GLP-1 receptor (rGLP-1r) (Rattus norvegicus, UniProt P32301); assay: BSA-cAMP assay, cells expressing rat GLP-1 receptor; details: Batch 1; BSA-cAMP assay; read-out: rGLP1r cAMP activity EC50
T5 construct: expressed in transfected cells; host or cells: HEK293s or CHO cells
T5 sequence (P32301 22-463): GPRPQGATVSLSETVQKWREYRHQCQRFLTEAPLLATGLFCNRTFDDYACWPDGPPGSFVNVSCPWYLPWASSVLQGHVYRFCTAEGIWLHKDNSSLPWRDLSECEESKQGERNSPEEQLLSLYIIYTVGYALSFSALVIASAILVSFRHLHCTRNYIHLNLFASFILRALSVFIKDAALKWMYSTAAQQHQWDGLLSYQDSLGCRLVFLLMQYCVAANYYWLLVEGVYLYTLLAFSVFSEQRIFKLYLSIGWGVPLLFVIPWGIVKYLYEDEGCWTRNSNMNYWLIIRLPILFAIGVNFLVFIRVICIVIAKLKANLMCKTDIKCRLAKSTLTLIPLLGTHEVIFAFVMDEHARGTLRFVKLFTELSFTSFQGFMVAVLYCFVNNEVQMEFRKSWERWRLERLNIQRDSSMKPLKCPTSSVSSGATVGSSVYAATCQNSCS
Procedure: as §1, §2, §3, §4, §5, §6, §7, §8

rat GIP receptor (rGIPr) = molecular target: T6, rat GIP receptor (rGIPr) (Rattus norvegicus, UniProt P43219); assay: BSA-cAMP assay, cells expressing rat GIP receptor; details: Batch 1; BSA-cAMP assay; read-out: rGIPr cAMP activity EC50
T6 construct: expressed in transfected cells; host or cells: HEK293s or CHO cells
T6 sequence (P43219 19-455): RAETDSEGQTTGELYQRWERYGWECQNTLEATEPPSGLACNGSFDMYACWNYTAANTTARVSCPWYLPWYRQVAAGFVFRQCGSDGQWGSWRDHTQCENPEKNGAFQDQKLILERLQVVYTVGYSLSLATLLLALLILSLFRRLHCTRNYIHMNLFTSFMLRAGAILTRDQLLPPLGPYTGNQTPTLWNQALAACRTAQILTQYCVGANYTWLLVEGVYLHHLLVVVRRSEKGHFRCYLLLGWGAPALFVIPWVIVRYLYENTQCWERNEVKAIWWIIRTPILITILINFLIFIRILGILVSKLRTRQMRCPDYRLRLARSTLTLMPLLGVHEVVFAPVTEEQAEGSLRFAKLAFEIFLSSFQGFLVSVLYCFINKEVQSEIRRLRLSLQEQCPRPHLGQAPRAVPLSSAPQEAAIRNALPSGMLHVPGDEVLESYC
Procedure: as §1, §2, §3, §4, §5, §6, §7, §8

[6] = molecular target: T7, mouse GLP-1 receptor (mGLP-1r) (Mus musculus, UniProt O35659); assay: BSA-cAMP assay, cells expressing mouse GLP-1 receptor; details: Batch 1; BSA-cAMP assay; read-out: mGLP1r cAMP activity EC50
T7 construct: expressed in transfected cells; host or cells: HEK293s or CHO cells
T7 sequence (O35659 22-463): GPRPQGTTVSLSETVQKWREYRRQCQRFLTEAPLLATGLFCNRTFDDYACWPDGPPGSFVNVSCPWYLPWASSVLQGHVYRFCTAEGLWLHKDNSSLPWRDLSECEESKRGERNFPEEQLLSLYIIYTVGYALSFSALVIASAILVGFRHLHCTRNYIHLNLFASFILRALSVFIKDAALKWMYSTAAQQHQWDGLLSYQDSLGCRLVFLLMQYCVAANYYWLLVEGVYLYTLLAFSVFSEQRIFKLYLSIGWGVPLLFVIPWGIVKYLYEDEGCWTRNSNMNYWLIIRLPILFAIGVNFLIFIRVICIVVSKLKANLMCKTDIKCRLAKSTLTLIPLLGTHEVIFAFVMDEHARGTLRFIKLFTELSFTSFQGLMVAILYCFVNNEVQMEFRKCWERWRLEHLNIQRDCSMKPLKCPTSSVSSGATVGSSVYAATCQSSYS
Procedure: as §1, §2, §3, §4, §5, §6, §7, §8

EC50 [1] [nM] | EC50 [2] [nM] | EC50 [3] [nM] | EC50 [4] [nM] | EC50 [5] [nM] | EC50 (rat GIP receptor (rGIPr)) [nM] | EC50 [6] [nM] | Molecule
0.12 | 22 | 12000 | 0.31 | 0.058 | 4.7 | 1.9 | B1
0.011 | 0.25 | 220 | 0.1 | 0.015 | 0.026 | 0.25 | B2
0.091 | 31 | 4100 | 1.6 | 0.21 | 5.2 | 6.5 | B3
0.086 | 15 | 900 | 7.7 | 1.7 | 1.3 | 16 | B4
0.15 | 31 | 3700 | 0.35 | 0.038 | 5.2 | 1.4 | B5
0.048 | 16 | > 5310 | > 5310 | 5.4 | 1.2 | > 1060 | B6
0.024 | 0.36 | 280 | > 5460 | 13 | 0.096 | > 5460 | B7
